These results are taken from US20060134087A1, “ITI-D1 Kunitz domain mutants as hNE inhibitors” (Dyax Corp., priority 1988, published 2006).

The target of assay [1] is T1, agarose-immobilized hNE beads (Homo sapiens, UniProt P08246).
T1 sequence (P08246 30-267): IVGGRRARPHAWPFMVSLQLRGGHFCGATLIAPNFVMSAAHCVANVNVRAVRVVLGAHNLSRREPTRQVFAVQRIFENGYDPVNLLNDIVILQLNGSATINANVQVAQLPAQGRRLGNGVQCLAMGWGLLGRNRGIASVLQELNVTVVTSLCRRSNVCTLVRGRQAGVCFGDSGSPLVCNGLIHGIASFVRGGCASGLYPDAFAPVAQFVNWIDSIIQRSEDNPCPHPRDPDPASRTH
As to the kind of experiment: pH fractionation of display phage on agarose-immobilized hNE beads. It counts as binding. Particulars: range of the affinity class. The text has this: For the purpose of simultaneously assessing the affinity of a large number of different BPTI and ITI-D1 muteins, DNA sequences encoding the BPTI or ITI-D1 was incorporated into the genome of the bacteriophage M13. […] Alterations in the KuDom amino acid sequence were introduced. Each pure population of phage displaying a particular KuDom was characterized with regard to its interactions with immobilized hNE or hCG. Based on comparison to the pH elution profiles of phage displaying other KuDoms of known affinities for the particular protease, mutant KuDoms having high affinity for the target proteases were identified. Subsequently, the sequences of these mutant KuDoms were determined (typically by sequencing the corresponding DNA sequence).
To test if phage displaying the ITI-D1::III fusion protein interact strongly with the proteases human neutrophil elastase (hNE), aliquots of display phage were incubated with agarose-immobilized hNE beads (“hNE beads”). The beads were washed and bound phage eluted by pH fractionation as described in U.S. Pat. No. 5,223,409. The pHs used in the step gradient were 7.0, 6.0, 5.5, 5.0, 4.5, 4.0, 3.5, 3.0, 2.5, and 2.0. Following elution and neutralization, the various input, wash, and pH elution fractions were titered. Phage displaying ITI-D1 were compared to phage that display EpiNE-7.
To test if ITI-D1E7-display phage bind hNE beads, pH elution profiles were measured. Aliquots of EpiNE-7, MA-ITI-D1, and MA-ITI-D1E7 display phage were incubated with hNE beads for three hours at room temperature (RT). The beads were washed and phage were eluted as described in U.S. Pat. No. 5,223,409, except that only three pH elutions were performed. […] The pH elution profile of EpiNE-7 display phage is as described. MA-ITI-D1E7 phage show a broad elution maximum around pH 5. The total fraction of MA-ITI-D1E7 phage obtained on pH elution from hNE beads was about 40-fold less than that obtained using EpiNE-7 display phage.
We characterized the binding properties to hNE-beads of MA-BITI and MA-BITI-E7 display phage using the extended pH fractionation procedure described in U.S. Pat. No. 5,223,409.
The binding capacity of hNE-beads for display phage varies among preparations of beads and with age for each individual preparation of beads. Thus, it is difficult to directly compare absolute yields of phage from elutions performed at different times. For example, the fraction of MA-EpiNE7 display phage recovered from hNE-beads varies two-fold among the experiments shown in Tables 14, 16, and 17. However, the shapes of the pH elution profiles are similar. It is possible to correct somewhat for variations in binding capacity of hNE-beads by normalizing display phage yields to the total yield of MA-EpiNE7 phage recovered from the beads in a concurrent elution. When the data shown in Tables 14, 16, and 17 are so normalized, the recoveries of display phage, relative to recovered MA-EpiNE7, are shown in Table 3.
ITI-D1 derivative BITI-E7-1222 is BITI-E7 with the alteration A11T. ITI-D1 derivative BITI-E7-141 is BITI-E7 with the alterations E31Q and Q34V; phage that display the presence of these proteins are MA-BITI-E7-1222 and MA-BITI-E7-141. We determined the binding properties to hNE-beads of MA-BITI-E7-1222 and MA-BITI-E7-141 display phage using the extended pH fractionation protocol described previously. The results are in Tables 18 (for MA-BITI-E7 and MA-BITI-E7-1222) and 19 (for MA-EpiNE7 and MA-BITI-E7-141). The pH elution profiles for the MA-BITI-E7 and MA-BITI-E7-1222 phage are almost identical.
Total pfu applied to the beads are in column two. The fractions of this input pfu recovered in each pH fraction of the abbreviated pH elution protocol (pH 7.0, pH 3.5, and pH 2.0) are in the next three columns. […]

Another assay deals with plasmin (Homo sapiens, UniProt P00747). The conditions noted are these: literature; cited from earlier work.
For assay [2], the target named is T2, human neutrophil elastase (hNE) (Homo sapiens, UniProt P08246).
T2 sequence (P08246 30-267): T1 sequence (P08246 30-267)
The conditions noted are these: ALBR83a,b, ODOM90, cited from earlier work.

In a further assay the test system is trypsin. Particulars: literature; cited from earlier work.
For a further assay, the system named is chymotrypsin. The conditions noted are these: literature; cited from earlier work.

Where two headings read alike, the source gives them in different places. Ends that are not written are not given here. Some results are limits rather than exact numbers.

Chain of plasmin (P00747 581-810 limits assumed, species assumed): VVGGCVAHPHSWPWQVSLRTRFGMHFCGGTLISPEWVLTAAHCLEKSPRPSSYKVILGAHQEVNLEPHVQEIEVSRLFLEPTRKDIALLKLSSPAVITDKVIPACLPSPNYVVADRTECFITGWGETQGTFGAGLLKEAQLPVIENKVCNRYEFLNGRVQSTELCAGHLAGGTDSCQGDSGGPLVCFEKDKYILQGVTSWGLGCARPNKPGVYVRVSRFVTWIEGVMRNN
Chain of plasmin (P00747 97-580 partner limits assumed, species assumed): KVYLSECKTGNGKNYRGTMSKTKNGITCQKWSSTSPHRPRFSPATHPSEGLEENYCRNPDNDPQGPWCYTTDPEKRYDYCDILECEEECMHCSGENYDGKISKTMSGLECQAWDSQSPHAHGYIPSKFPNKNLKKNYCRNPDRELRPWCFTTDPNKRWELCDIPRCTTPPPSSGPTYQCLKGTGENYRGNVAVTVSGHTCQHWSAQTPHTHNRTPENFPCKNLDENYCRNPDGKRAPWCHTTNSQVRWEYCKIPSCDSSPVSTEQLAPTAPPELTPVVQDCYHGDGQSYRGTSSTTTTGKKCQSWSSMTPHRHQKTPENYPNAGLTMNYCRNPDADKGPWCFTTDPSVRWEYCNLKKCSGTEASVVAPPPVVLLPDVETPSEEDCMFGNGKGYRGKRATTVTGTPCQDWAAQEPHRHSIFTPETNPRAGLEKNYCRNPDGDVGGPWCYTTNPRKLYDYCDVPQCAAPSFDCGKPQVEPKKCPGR

As usually defined, the Ki is a measure of affinity in units of concentration, obtained from inhibition or displacement. Consider “ITI-D1: first Kunitz domain of human inter-α-trypsin inhibitor light chain, SEQ ID NO 016 (KEDSCQLGYSAGPCMGMTSRYFYNGTSMACETFQYGGCMGNGNNFVTEKDCLQTCRTV; disulfide (positions not given here); also: disulfides drawn as lines in table, pairing not given here)”, for which the “Fraction of Input bound” value in assay [1] was less than 0.005%. The “pH Elution Maximum” value in assay [1] is recorded as more than 6.0 pH. Besides, the affinity for plasmin result with plasmin is “lacks affinity”. Also, the Ki in assay [2] (read-out: Ki for leukocyte elastase, lower limit) is more than 1 nM; in assay [2] (read-out: Ki for leukocyte elastase, upper limit) it was less than 1000 nM. Further, the “affinity for / inhibition of trypsin” value in the assay on trypsin was “lacks affinity”. In addition, the affinity for chymotrypsin result with chymotrypsin is “lacks affinity”.
